Measurements from patent US20150147342A1 (published 2015).

B1: H1H744N (antibody, V domains shown)
VH: QVQLVQSGVEVKKPGASVKVSCKTSGYTFSNNGFSWVRQAPGQGLEWLGWISGYNGNTNYAQKFQGRVTMTTDTSTSTAYMELRTLRSDDTAVYYCARDQDYSNFHWLDPWGQGTLVTVAS
VL: DIQMTQSPSSVSASVGDRVIITCRASQGLSSWLAWYQQKPGTAPKLLIHSASSLQTGVPSRFSGSGSGTEFALTINSLQPEDFGTYYCQQANSFPLTFGGGTRVEIK
B2: H1H685P (antibody, V domains shown)
VH: EVQLVESGGGLVQPGGSLRLSCAASGFTFSSYDIHWVRQATGKGLEWVSAIGPAGDTYYPGSVKGRFTISRENAKNSLYLQMNSLRAGDTAVYYCARGLITFGGLIAPFDYWGQGTLVTVSS
VL: EIVLTQSPGTLSLSPGERATLSCRASQSVSSTYLAWYQQKPGQAPRLLIYGASSRATGIPDRFSGSGSGTDFTLTISRLEPEDFAVYYCQHYDNSQTFGQGTKVEIK
notes: also called mAb1

How the values were obtained:
[1] = biological target: T1, Dimeric fibrinogen-like domain of human Ang-2 conjugated to human IgG1 (human); assay: SPR, hIgG1 antibody captured, room temp
T1 construct: also called Dimeric Human Ang-2FD; Human Ang-2FD-hFc
T1 sequence (chain, as listed by the source limits assumed): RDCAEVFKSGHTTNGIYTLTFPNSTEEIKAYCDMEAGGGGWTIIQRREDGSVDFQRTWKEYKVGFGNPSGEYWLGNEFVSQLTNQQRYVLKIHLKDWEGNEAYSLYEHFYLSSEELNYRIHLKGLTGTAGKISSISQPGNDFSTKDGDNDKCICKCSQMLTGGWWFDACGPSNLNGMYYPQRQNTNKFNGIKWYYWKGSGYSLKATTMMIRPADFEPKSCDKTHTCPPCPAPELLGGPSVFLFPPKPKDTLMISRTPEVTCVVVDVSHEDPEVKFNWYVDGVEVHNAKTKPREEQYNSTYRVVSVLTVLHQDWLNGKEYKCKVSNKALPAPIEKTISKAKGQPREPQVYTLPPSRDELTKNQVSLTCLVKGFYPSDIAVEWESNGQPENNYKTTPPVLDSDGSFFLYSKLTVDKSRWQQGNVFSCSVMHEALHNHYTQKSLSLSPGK
Experimental: (§1) Antibody was captured on a goat anti-mouse IgG polyclonal antibody surface, a goat anti-human κ polyclonal antibody (Southern Biotech, Birmingham, Ala.) surface or a goat anti-human IgG polyclonal antibody (Jackson Immuno Research Lab, West Grove, Pa.) surface created through direct amine coupling to a BIACORE™ CM5 sensor chip to form a captured antibody surface. […] Antigen-antibody binding and dissociation were monitored in real time at room temperature. Kinetic analysis was performed to calculate KD and half-life of antigen/antibody complex dissociation.
(§2) The above experiment was repeated using selected purified anti-Ang-2 antibodies cloned onto human IgG1.

[2] = biological target: T2, Dimeric fibrinogen-like domain of mouse (Mus musculus) Ang-2 conjugated to human IgG1 (mouse (Mus musculus)); assay: SPR, hIgG1 antibody captured, room temp
T2 construct: also called Dimeric Mouse Ang-2FD; Mouse Ang-2FD-hFc
T2 sequence (chain, as listed by the source limits assumed): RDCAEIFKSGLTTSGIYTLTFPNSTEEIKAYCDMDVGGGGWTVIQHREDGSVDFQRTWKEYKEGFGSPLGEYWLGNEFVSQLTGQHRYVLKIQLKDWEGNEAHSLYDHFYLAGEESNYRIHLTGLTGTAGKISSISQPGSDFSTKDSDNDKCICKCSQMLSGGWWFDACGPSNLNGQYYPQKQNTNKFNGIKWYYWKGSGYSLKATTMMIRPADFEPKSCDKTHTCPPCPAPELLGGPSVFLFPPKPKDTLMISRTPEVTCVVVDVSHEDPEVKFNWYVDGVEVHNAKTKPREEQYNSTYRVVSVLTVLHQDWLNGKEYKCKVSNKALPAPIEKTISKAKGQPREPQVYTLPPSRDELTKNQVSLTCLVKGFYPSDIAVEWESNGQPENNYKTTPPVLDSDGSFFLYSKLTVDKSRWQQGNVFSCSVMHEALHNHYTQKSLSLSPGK
Experimental: as §1, §2

[3] = biological target: T3, Dimeric fibrinogen-like domain of monkey (Macca fascicularis) Ang-2 conjugated to human IgG1 (monkey (Macca fascicularis)); assay: SPR, hIgG1 antibody captured, room temp
T3 construct: also called Dimeric Monkey Ang-2FD; Monkey Ang-2FD-hFc
T3 sequence (chain, as listed by the source limits assumed): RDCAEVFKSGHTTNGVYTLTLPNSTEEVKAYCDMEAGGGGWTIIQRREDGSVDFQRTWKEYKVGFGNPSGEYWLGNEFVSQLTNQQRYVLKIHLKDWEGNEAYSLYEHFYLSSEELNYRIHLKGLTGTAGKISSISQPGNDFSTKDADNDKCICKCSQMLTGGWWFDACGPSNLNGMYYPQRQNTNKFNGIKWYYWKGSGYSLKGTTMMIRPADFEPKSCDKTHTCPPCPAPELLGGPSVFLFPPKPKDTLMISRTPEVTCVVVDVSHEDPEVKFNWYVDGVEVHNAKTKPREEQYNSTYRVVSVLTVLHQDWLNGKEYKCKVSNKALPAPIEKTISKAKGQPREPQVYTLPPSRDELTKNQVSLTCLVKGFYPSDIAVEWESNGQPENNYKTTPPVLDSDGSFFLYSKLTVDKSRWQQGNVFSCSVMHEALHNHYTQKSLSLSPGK
Experimental: as §1, §2

[4] = biological target: T2, Dimeric fibrinogen-like domain of mouse …; assay: SPR, antibody captured on anti-human kappa, 37 C
Experimental: (§3) Additional binding experiments were conducted using selected anti-Ang-2 antibodies at two different temperatures to further assess cross-species affinity. Each selected antibody or control construct was captured at a flow rate of 40 μL/min for 1 minute on a goat anti-human kappa polyclonal antibody surface created through direct chemical coupling to a BIACORE™ chip to form a captured antibody surface.

[5] = biological target: T3, Dimeric fibrinogen-like domain of …; assay: SPR, antibody captured on anti-human kappa, 37 C
Experimental: as §3

[6] = biological target: T2, Dimeric fibrinogen-like domain of mouse …; assay: SPR, antibody captured on anti-human kappa, 25 C
Experimental: as §3

[7] = biological target: T3, Dimeric fibrinogen-like domain of …; assay: SPR, antibody captured on anti-human kappa, 25 C
Experimental: as §3

Row | Binder | Kd [1] [nM] | T1/2 [1] [h] | T1/2 [2] [h] | Kd [3] [nM] | T1/2 [3] [h] | Kd [4] [nM] | T1/2 [4] [h] | Kd [5] [nM] | T1/2 [5] [h] | Kd [6] [nM] | T1/2 [6] [h] | Kd [7] [nM] | T1/2 [7] [h] | Kd [2] [nM]
1 | B1 | 0.114 | 2.12 | 1.92 | 0.346 | 2.73 | 0.215 | 0.433 | 0.32 | 0.183 | 0.385 | 0.55 | 0.244 | 0.4 | 
2 | B2 |  |  | 2.14 |  |  | 0.0939 | 1.07 |  |  | 0.0651 | 3.47 |  |  | 0.148
